{"source": "paper PMC9810211", "target": "SeTau-405 fluorescently labeled BOA (Burkholderia oklahomensis)", "experiment": "other fluorescence titration", "data": [{"substance": "SARS-CoV-2 Spike protein (Hexapro S) (from UniProt P0DTC2) (natural protein)", "values": [{"measurement": "half-saturation point", "result": "30 to 60", "unit": "nM"}]}]}
